Paper PMC10078426

Assays:
[1] = target: human IgG from serum (human) [IgG part: P01857]; experiment: SPR; preparation #1
[2] = target: human IgG from serum (human) [IgG part: P01857]; experiment: SPR; preparation #2
[3] = target: human IgG from serum (human) [IgG part: P01857]; experiment: SPR

protein G: β-galactosidase fusion protein (from UniProt P19909)
Kd [1]: 33.4 nM
Kd [2]: 41.8 nM

protein G:HRP (from UniProt P19909)
Kd [3]: 18.9 nM
